Assay results: patent US20080070264A1, “Intracellular Signaling-Induced Ret-Independent Gdnf Receptor-Effected Morphological Changes” (JPMORGAN CHASE BANK N.A., priority 2003, published 2008)

Tests used:
Src-type kinases = assay: Src activation (Tyr418 phosphorylation) in MDCK cells; type: cell-based, dog; settings: GFRα1-expressing and RET/GFRα1-expressing MDCK cells
Method: FIG. 7A: Dose-dependent Src-kinase activation by GDNF in GFRα1-expressing and RET/GFRα1-expressing MDCK cells. The activation of Src-type kinases was observed after 15 minutes. The concentrations of GDNF are indicated. The numbers below the lane reflect the fold of increase in phosphorylation of Tyr418 of Src. The lower panels show the re-probing of the same filter with anti-Src antibodies. The results are representative of three independent experiments.
To analyze Src activation, subconfluent GFRα1- and RET/GFRα1-expressing MDCK cell cultures were starved for 24 h before induction in serum-free MEM. After 10 min incubation at 37° C. with 50 ng/ml GDNF (Cephalon Inc. or R&D Systems, Inc.) or 50 ng/ml HGF (Sigma) cells were lysed in lysis buffer supplemented with 1 mM Na-orthovanadate and analyzed by Western blotting as described (Lindahl et al., 2001). The Western blots were probed with the indicated antibodies and developed with ECL reagents (Amersham Pharmacia Biotech). Antibodies used included anti-Y^418 Src and anti-Src (BioSource International).
Possible candidates for messengers between GDNF-GFRα1 complex and MET are Src family kinases. […]

MET = MET phosphorylation in SHEP neuroblastoma cells; type: cell-based, human; settings: GDNF 0.1 pg/ml; SHEP cells express GFRα1 but not RET; data not shown
Method: FIG. 7B: SHEP cells were grown with GDNF (10 ng/ml (lanes 2-4) or 5 pg/ml (lanes 5-7)) or HGF (10 ng/ml (lanes 8-9)) in the presence of PP2 (1 μM (lanes 3 and 6) and 10 μM (lanes 4 and 7)). To exclude a possible cytotoxic effect of the solvent, DMSO was added to the controls. […] The numbers below the lane indicate the fold of induction of MET tyrosine kinase. The results are representative of three independent experiments.
To detect MET activation, GFRα1- and RET/GFRα1-expressing MDCK or SHEP cells were starved overnight in MEM or RPMI 1640 with 1% FCS, respectively, and in serum-free medium for 2 h prior the induction. After 15 min incubation at 37° C. with GDNF (at indicated concentrations) or with 50 ng/ml HGF, cells were lysed as described. Cleared cell lysates were incubated with anti-MET antibodies (Santa Cruz Biotechnologies, Inc.) overnight at 4° C. Immunoprecipitates were collected with protein A-SEPHAROSE (Amersham Pharmacia Biotech), washed, separated by SDS-PAGE and transferred to HYBOND-ECL membranes. Membranes were immunoblotted with anti-phospho-tyrosine antibodies (Upstate Group Inc.) or anti-MET antibodies.
For all experiments, densitometry and quantifications were performed using TINA 2.0 program (Raytest, Straubenhardt, Germany).
For the inhibition of MET, and Src activation, SHEP or GFRα1- and RET/GFRα1-expressing MDCK cells were starved as described above. 1 or […] of the inhibitor PP2 (Calbiochem) was added 30 min before induction by GDNF or HGF. DMSO (dimethyl sulfoxide) was added to the positive controls together with GDNF or HGF.

B1: GDNF: recombinant glial cell line-derived neurotrophic factor from Cephalon Inc. (baculovirus-infected insect cells) or R&D Systems, Inc. (mouse myeloma NSO) (protein, UniProt P39905 78-211, looked up)
Glial cell line-derived …: SPDKQMAVLPRRERNRQAAAANPENSRGKGRRGQRGKNRGCVLTAIHLNVTDLGLGYETKEELIFRYCSGSCDAAETTYDKILKNLSRNRRLVSDKVGQACCRPIAFDDDLSFLDDNLVYHILRKHSAKRCGCI
GDNF concentration that saturated Src phosphorylation (Src-type kinases): 0.1 pg/mL
time at which activation of Src-type kinases was observed (Src-type kinases): 15 min
MET phosphorylation (MET): induced rapid MET phosphorylation
